The record followed here is publication PMC6436931, “Activation of the Endonuclease that Defines mRNA 3′ Ends Requires Incorporation into an 8-Subunit Core Cleavage and Polyadenylation Factor Complex” (Molecular Cell, 2019).

The target in one data set is Ysh1;Mpe1;Yjr141w (Saccharomyces cerevisiae;Saccharomyces …, UniProt Q06224;P35728;P47172 1-779;1-441;1-347, ||). As to the kind of experiment: EMSA; EMSA: 50 nM RNA, 0.25-4.0 uM protein, protein diluted in 10 mM HEPES pH 7.9, 150 mM NaCl, 0.5 mM Mg(OAc)2, plus 1x loading dye (orange G, glycerol, EDTA); 30 min on ice; native 6% acrylamide/TBE PAGE. Particulars: protein: recombinant;recombinant;recombinant; tags: ;3C-SII (C-terminal) in Ysh1-Mpe1 complexes; untagged in CPFcore;SII-3C (N-terminal) in Ysh1-Yjr141w; untagged in Ysh1-Mpe1-Yjr141w; copies: 1;1;1; label: 5'-FAM.

For another data set, the target named is T1, Ysh1;Mpe1 (Saccharomyces cerevisiae;Saccharomyces …, UniProt Q06224;P35728 1-779;1-441, |).
T1 sequence 1: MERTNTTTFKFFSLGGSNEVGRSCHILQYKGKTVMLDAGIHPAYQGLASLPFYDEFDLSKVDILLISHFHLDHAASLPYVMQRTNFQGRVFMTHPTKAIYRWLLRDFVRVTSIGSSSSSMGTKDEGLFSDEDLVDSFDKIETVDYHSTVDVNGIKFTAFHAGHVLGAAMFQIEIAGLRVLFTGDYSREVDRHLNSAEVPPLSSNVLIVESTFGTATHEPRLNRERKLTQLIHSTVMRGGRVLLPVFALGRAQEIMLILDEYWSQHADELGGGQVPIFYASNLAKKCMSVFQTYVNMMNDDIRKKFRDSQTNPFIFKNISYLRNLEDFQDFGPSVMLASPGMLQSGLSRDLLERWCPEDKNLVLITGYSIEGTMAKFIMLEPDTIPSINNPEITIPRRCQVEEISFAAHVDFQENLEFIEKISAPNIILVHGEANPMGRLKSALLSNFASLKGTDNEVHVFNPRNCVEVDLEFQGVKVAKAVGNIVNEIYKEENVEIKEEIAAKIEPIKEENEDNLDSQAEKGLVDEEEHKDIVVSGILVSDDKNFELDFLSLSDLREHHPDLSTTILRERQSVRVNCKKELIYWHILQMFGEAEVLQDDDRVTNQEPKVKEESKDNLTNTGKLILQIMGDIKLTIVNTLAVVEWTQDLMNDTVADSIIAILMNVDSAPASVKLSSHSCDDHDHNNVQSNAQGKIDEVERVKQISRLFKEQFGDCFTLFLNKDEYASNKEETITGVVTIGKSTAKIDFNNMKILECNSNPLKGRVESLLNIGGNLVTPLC
T1 sequence 2: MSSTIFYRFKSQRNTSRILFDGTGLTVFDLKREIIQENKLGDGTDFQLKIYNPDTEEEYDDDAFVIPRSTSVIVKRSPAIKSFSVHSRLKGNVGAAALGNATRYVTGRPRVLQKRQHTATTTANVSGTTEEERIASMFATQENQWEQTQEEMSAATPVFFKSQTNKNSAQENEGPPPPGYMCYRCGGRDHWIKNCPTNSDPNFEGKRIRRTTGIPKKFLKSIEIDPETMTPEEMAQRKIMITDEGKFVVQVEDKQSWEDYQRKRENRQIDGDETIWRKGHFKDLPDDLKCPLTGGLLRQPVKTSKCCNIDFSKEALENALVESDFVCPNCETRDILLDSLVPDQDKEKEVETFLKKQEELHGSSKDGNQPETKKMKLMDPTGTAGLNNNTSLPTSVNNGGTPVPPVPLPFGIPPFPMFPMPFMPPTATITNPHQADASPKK
The description is as above. Particulars: protein: recombinant;recombinant; tags: ;3C-SII (C-terminal) in Ysh1-Mpe1 complexes; untagged in CPFcore; copies: 1;1; label: 5'-FAM.

Chain of Ysh1;Mpe1;Yjr141w (P47172 whole entry, chain 3 of 3, one chain of several): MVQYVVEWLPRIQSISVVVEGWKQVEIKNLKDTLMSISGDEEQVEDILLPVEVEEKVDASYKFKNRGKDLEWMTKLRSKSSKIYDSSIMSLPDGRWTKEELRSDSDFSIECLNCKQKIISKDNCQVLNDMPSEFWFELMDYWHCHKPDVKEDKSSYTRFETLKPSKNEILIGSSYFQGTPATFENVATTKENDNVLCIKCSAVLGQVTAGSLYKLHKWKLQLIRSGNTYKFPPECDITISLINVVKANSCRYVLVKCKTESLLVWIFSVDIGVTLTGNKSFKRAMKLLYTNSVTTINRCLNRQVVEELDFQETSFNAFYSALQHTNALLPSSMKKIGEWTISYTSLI

B1: A15 (ssRNA)
RNA: AAAAAAAAAAAAAAA
Consider B1, for which the binding result with Ysh1;Mpe1;Yjr141w and with Ysh1;Mpe1 was “no binding” each time.

B2: C15 (ssRNA)
RNA: CCCCCCCCCCCCCCC
Regarding B2, the binding result in the data set with Ysh1;Mpe1;Yjr141w and in the data set with Ysh1;Mpe1 was “no binding” throughout.

B3: U15 (ssRNA)
RNA: UUUUUUUUUUUUUUU
With B3, the binding result with Ysh1;Mpe1;Yjr141w and with Ysh1;Mpe1 was “no binding” each time.

B4: G15 (ssRNA)
RNA: GGGGGGGGGGGGGGG
In the case of B4, the binding result with Ysh1;Mpe1;Yjr141w and with Ysh1;Mpe1 was “binds” in each case.
